Measured values published in patent publication US20210388087A1 (Chugai, published 2021).

T1: Human CD3eg linker (human)
T1 construct: Single chain: epsilon and gamma subunits of human CD3 joined by a 29-mer linker, Flag-tag at the C-terminus; also called recombinant human CD3
T1 chain: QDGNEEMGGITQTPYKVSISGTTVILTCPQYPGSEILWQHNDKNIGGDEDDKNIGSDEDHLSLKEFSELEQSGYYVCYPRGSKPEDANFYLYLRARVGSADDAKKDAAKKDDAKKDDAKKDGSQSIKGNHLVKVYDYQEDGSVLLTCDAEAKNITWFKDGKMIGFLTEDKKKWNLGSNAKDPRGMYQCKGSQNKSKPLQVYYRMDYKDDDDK


Target: T1, Human CD3eg linker
Assay: Biacore SPR, vs template H183/L072

Binder	fold change of affinity [fold]
H183/L072 VH M34N (antibody, name in Kabat numbering, V domains shown) VH: QVQLVESGGGLVQPGRSLRLSCAASGFTFSNAWNHWVRQAPGKGLEWVAQIKDKGNAYAAYYAPSVKGRFTISRDDSKNSIYLQMNSLKTEDTAVYYCHYVHYASASTVLPAFGVDAWGQGTTVTVSS VL: DIVMTQSPLSLPVTPGEPASISCQASQELVHMNRNTYLHWYQQKPGQAPRLLIYKVSNRFPGVPDRFSGSGSGTDFTLKISRVEAEDVGVYYCAQGTSVPFTFGQGTKLEIK	0
H183/L072 VH M34W (antibody, name in Kabat numbering, V domains shown) VH: QVQLVESGGGLVQPGRSLRLSCAASGFTFSNAWWHWVRQAPGKGLEWVAQIKDKGNAYAAYYAPSVKGRFTISRDDSKNSIYLQMNSLKTEDTAVYYCHYVHYASASTVLPAFGVDAWGQGTTVTVSS VL: DIVMTQSPLSLPVTPGEPASISCQASQELVHMNRNTYLHWYQQKPGQAPRLLIYKVSNRFPGVPDRFSGSGSGTDFTLKISRVEAEDVGVYYCAQGTSVPFTFGQGTKLEIK	0
H183/L072 VH N31K (antibody, name in Kabat numbering, V domains shown) VH: QVQLVESGGGLVQPGRSLRLSCAASGFTFSKAWMHWVRQAPGKGLEWVAQIKDKGNAYAAYYAPSVKGRFTISRDDSKNSIYLQMNSLKTEDTAVYYCHYVHYASASTVLPAFGVDAWGQGTTVTVSS VL: DIVMTQSPLSLPVTPGEPASISCQASQELVHMNRNTYLHWYQQKPGQAPRLLIYKVSNRFPGVPDRFSGSGSGTDFTLKISRVEAEDVGVYYCAQGTSVPFTFGQGTKLEIK	0.4
H183/L072 VH M34Y (antibody, name in Kabat numbering, V domains shown) VH: QVQLVESGGGLVQPGRSLRLSCAASGFTFSNAWYHWVRQAPGKGLEWVAQIKDKGNAYAAYYAPSVKGRFTISRDDSKNSIYLQMNSLKTEDTAVYYCHYVHYASASTVLPAFGVDAWGQGTTVTVSS VL: DIVMTQSPLSLPVTPGEPASISCQASQELVHMNRNTYLHWYQQKPGQAPRLLIYKVSNRFPGVPDRFSGSGSGTDFTLKISRVEAEDVGVYYCAQGTSVPFTFGQGTKLEIK	0
H183/L072 VH N31D (antibody, name in Kabat numbering, V domains shown) VH: QVQLVESGGGLVQPGRSLRLSCAASGFTFSDAWMHWVRQAPGKGLEWVAQIKDKGNAYAAYYAPSVKGRFTISRDDSKNSIYLQMNSLKTEDTAVYYCHYVHYASASTVLPAFGVDAWGQGTTVTVSS VL: DIVMTQSPLSLPVTPGEPASISCQASQELVHMNRNTYLHWYQQKPGQAPRLLIYKVSNRFPGVPDRFSGSGSGTDFTLKISRVEAEDVGVYYCAQGTSVPFTFGQGTKLEIK	0.1
H183/L072 VH N31I (antibody, name in Kabat numbering, V domains shown) VH: QVQLVESGGGLVQPGRSLRLSCAASGFTFSIAWMHWVRQAPGKGLEWVAQIKDKGNAYAAYYAPSVKGRFTISRDDSKNSIYLQMNSLKTEDTAVYYCHYVHYASASTVLPAFGVDAWGQGTTVTVSS VL: DIVMTQSPLSLPVTPGEPASISCQASQELVHMNRNTYLHWYQQKPGQAPRLLIYKVSNRFPGVPDRFSGSGSGTDFTLKISRVEAEDVGVYYCAQGTSVPFTFGQGTKLEIK	0.5
H183/L072 VH N31H (antibody, name in Kabat numbering, V domains shown) VH: QVQLVESGGGLVQPGRSLRLSCAASGFTFSHAWMHWVRQAPGKGLEWVAQIKDKGNAYAAYYAPSVKGRFTISRDDSKNSIYLQMNSLKTEDTAVYYCHYVHYASASTVLPAFGVDAWGQGTTVTVSS VL: DIVMTQSPLSLPVTPGEPASISCQASQELVHMNRNTYLHWYQQKPGQAPRLLIYKVSNRFPGVPDRFSGSGSGTDFTLKISRVEAEDVGVYYCAQGTSVPFTFGQGTKLEIK	0.3
H183/L072 VH M34S (antibody, name in Kabat numbering, V domains shown) VH: QVQLVESGGGLVQPGRSLRLSCAASGFTFSNAWSHWVRQAPGKGLEWVAQIKDKGNAYAAYYAPSVKGRFTISRDDSKNSIYLQMNSLKTEDTAVYYCHYVHYASASTVLPAFGVDAWGQGTTVTVSS VL: DIVMTQSPLSLPVTPGEPASISCQASQELVHMNRNTYLHWYQQKPGQAPRLLIYKVSNRFPGVPDRFSGSGSGTDFTLKISRVEAEDVGVYYCAQGTSVPFTFGQGTKLEIK	0
H183/L072 VH M34Q (antibody, name in Kabat numbering, V domains shown) VH: QVQLVESGGGLVQPGRSLRLSCAASGFTFSNAWQHWVRQAPGKGLEWVAQIKDKGNAYAAYYAPSVKGRFTISRDDSKNSIYLQMNSLKTEDTAVYYCHYVHYASASTVLPAFGVDAWGQGTTVTVSS VL: DIVMTQSPLSLPVTPGEPASISCQASQELVHMNRNTYLHWYQQKPGQAPRLLIYKVSNRFPGVPDRFSGSGSGTDFTLKISRVEAEDVGVYYCAQGTSVPFTFGQGTKLEIK	0
H183/L072 VH M34R (antibody, name in Kabat numbering, V domains shown) VH: QVQLVESGGGLVQPGRSLRLSCAASGFTFSNAWRHWVRQAPGKGLEWVAQIKDKGNAYAAYYAPSVKGRFTISRDDSKNSIYLQMNSLKTEDTAVYYCHYVHYASASTVLPAFGVDAWGQGTTVTVSS VL: DIVMTQSPLSLPVTPGEPASISCQASQELVHMNRNTYLHWYQQKPGQAPRLLIYKVSNRFPGVPDRFSGSGSGTDFTLKISRVEAEDVGVYYCAQGTSVPFTFGQGTKLEIK	0
H183/L072 VH M34V (antibody, name in Kabat numbering, V domains shown) VH: QVQLVESGGGLVQPGRSLRLSCAASGFTFSNAWVHWVRQAPGKGLEWVAQIKDKGNAYAAYYAPSVKGRFTISRDDSKNSIYLQMNSLKTEDTAVYYCHYVHYASASTVLPAFGVDAWGQGTTVTVSS VL: DIVMTQSPLSLPVTPGEPASISCQASQELVHMNRNTYLHWYQQKPGQAPRLLIYKVSNRFPGVPDRFSGSGSGTDFTLKISRVEAEDVGVYYCAQGTSVPFTFGQGTKLEIK	0.1
H183/L072 VH N31L (antibody, name in Kabat numbering, V domains shown) VH: QVQLVESGGGLVQPGRSLRLSCAASGFTFSLAWMHWVRQAPGKGLEWVAQIKDKGNAYAAYYAPSVKGRFTISRDDSKNSIYLQMNSLKTEDTAVYYCHYVHYASASTVLPAFGVDAWGQGTTVTVSS VL: DIVMTQSPLSLPVTPGEPASISCQASQELVHMNRNTYLHWYQQKPGQAPRLLIYKVSNRFPGVPDRFSGSGSGTDFTLKISRVEAEDVGVYYCAQGTSVPFTFGQGTKLEIK	0.2
H183/L072 VH M34P (antibody, name in Kabat numbering, V domains shown) VH: QVQLVESGGGLVQPGRSLRLSCAASGFTFSNAWPHWVRQAPGKGLEWVAQIKDKGNAYAAYYAPSVKGRFTISRDDSKNSIYLQMNSLKTEDTAVYYCHYVHYASASTVLPAFGVDAWGQGTTVTVSS VL: DIVMTQSPLSLPVTPGEPASISCQASQELVHMNRNTYLHWYQQKPGQAPRLLIYKVSNRFPGVPDRFSGSGSGTDFTLKISRVEAEDVGVYYCAQGTSVPFTFGQGTKLEIK	0
H183/L072 VH N31E (antibody, name in Kabat numbering, V domains shown) VH: QVQLVESGGGLVQPGRSLRLSCAASGFTFSEAWMHWVRQAPGKGLEWVAQIKDKGNAYAAYYAPSVKGRFTISRDDSKNSIYLQMNSLKTEDTAVYYCHYVHYASASTVLPAFGVDAWGQGTTVTVSS VL: DIVMTQSPLSLPVTPGEPASISCQASQELVHMNRNTYLHWYQQKPGQAPRLLIYKVSNRFPGVPDRFSGSGSGTDFTLKISRVEAEDVGVYYCAQGTSVPFTFGQGTKLEIK	0
H183/L072 VH M34T (antibody, name in Kabat numbering, V domains shown) VH: QVQLVESGGGLVQPGRSLRLSCAASGFTFSNAWTHWVRQAPGKGLEWVAQIKDKGNAYAAYYAPSVKGRFTISRDDSKNSIYLQMNSLKTEDTAVYYCHYVHYASASTVLPAFGVDAWGQGTTVTVSS VL: DIVMTQSPLSLPVTPGEPASISCQASQELVHMNRNTYLHWYQQKPGQAPRLLIYKVSNRFPGVPDRFSGSGSGTDFTLKISRVEAEDVGVYYCAQGTSVPFTFGQGTKLEIK	0
H183/L072 VH N31P (antibody, name in Kabat numbering, V domains shown) VH: QVQLVESGGGLVQPGRSLRLSCAASGFTFSPAWMHWVRQAPGKGLEWVAQIKDKGNAYAAYYAPSVKGRFTISRDDSKNSIYLQMNSLKTEDTAVYYCHYVHYASASTVLPAFGVDAWGQGTTVTVSS VL: DIVMTQSPLSLPVTPGEPASISCQASQELVHMNRNTYLHWYQQKPGQAPRLLIYKVSNRFPGVPDRFSGSGSGTDFTLKISRVEAEDVGVYYCAQGTSVPFTFGQGTKLEIK	0.1
H183/L072 VH N31F (antibody, name in Kabat numbering, V domains shown) VH: QVQLVESGGGLVQPGRSLRLSCAASGFTFSFAWMHWVRQAPGKGLEWVAQIKDKGNAYAAYYAPSVKGRFTISRDDSKNSIYLQMNSLKTEDTAVYYCHYVHYASASTVLPAFGVDAWGQGTTVTVSS VL: DIVMTQSPLSLPVTPGEPASISCQASQELVHMNRNTYLHWYQQKPGQAPRLLIYKVSNRFPGVPDRFSGSGSGTDFTLKISRVEAEDVGVYYCAQGTSVPFTFGQGTKLEIK	0.5
H183/L072 VH N31G (antibody, name in Kabat numbering, V domains shown) VH: QVQLVESGGGLVQPGRSLRLSCAASGFTFSGAWMHWVRQAPGKGLEWVAQIKDKGNAYAAYYAPSVKGRFTISRDDSKNSIYLQMNSLKTEDTAVYYCHYVHYASASTVLPAFGVDAWGQGTTVTVSS VL: DIVMTQSPLSLPVTPGEPASISCQASQELVHMNRNTYLHWYQQKPGQAPRLLIYKVSNRFPGVPDRFSGSGSGTDFTLKISRVEAEDVGVYYCAQGTSVPFTFGQGTKLEIK	0.3
H183/L072 VH N31M (antibody, name in Kabat numbering, V domains shown) VH: QVQLVESGGGLVQPGRSLRLSCAASGFTFSMAWMHWVRQAPGKGLEWVAQIKDKGNAYAAYYAPSVKGRFTISRDDSKNSIYLQMNSLKTEDTAVYYCHYVHYASASTVLPAFGVDAWGQGTTVTVSS VL: DIVMTQSPLSLPVTPGEPASISCQASQELVHMNRNTYLHWYQQKPGQAPRLLIYKVSNRFPGVPDRFSGSGSGTDFTLKISRVEAEDVGVYYCAQGTSVPFTFGQGTKLEIK	0.2
H183/L072 VH N31A (antibody, name in Kabat numbering, V domains shown) VH: QVQLVESGGGLVQPGRSLRLSCAASGFTFSAAWMHWVRQAPGKGLEWVAQIKDKGNAYAAYYAPSVKGRFTISRDDSKNSIYLQMNSLKTEDTAVYYCHYVHYASASTVLPAFGVDAWGQGTTVTVSS VL: DIVMTQSPLSLPVTPGEPASISCQASQELVHMNRNTYLHWYQQKPGQAPRLLIYKVSNRFPGVPDRFSGSGSGTDFTLKISRVEAEDVGVYYCAQGTSVPFTFGQGTKLEIK	0.4
